Assay results: the supplement of paper PMC7877785
± gives the uncertainty stated by the source.

Assay: self-splicing fitness, log relative to wild type (ln ratio); higher = more splicing; Tetrahymena group I intron in knt gene, E. coli kanamycin selection, DiMSum; sequences stand for … in CUCUCU…GGAGGGAAAAGUUAUCAGGCAUGCACCUGGUAGCUAGUCUUUAAACCAAUAGAUUGCAUCGGUUUAAAAGGCAAGACCGUCAAAUUGCGGGAAAGGGGUCAACAGCCGUUCAGUACCAAGUCUCAGGGGAAACUUUGAGAUGGCCUUGCAAAGGGUAUGGUAAUAAGCUGACGGACAUGGUCCUAACCACGCAGCCAAGUCCUAAGUCAACAGAUCUUCUGUUGAUAUGGAUGCAGUUCACAGACUAAAUGUCGGUCGGGGAAGAUGUAUUCUUCUCAUAAGAUAUAGUCGGACCUCUCCUUAAUGGGAGCUAGCGGAUGAAGUGAUGCAACACUGGAGCCGCUGGGAACUAAUUUGUAUGCGAAAGUAUAUUGAUUAGUUUUGGAGUACUCGUGGUCG
Procedure, shortened: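 DiMSum derived fitness as the error-weighted combination of fold changes across replicates, kanamycin versus no kanamycin, normalised to wild type. E. coli BL21(DE3) held the library, which randomised all eight P1ex-region intron nucleotides within the knt kanamycin-resistance gene on pET-22b(+). Six replicate transformations grew overnight at 37°C or 30°C on LB agar with or without 25 μg/mL kanamycin, also containing 100 μg/mL carbenicillin, 50 μM IPTG and 0.2% rhamnose, and pooled colonies were amplicon-sequenced on an Illumina HiSeq 2500.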

| Sequence | self-splicing fitness (ln) (30 °C) | self-splicing fitness (ln) (37 °C) |
| --- | --- | --- |
| CCUCAGCAAUAUUACGUUGA | -3.03 ± 0.14 | -2.28 ± 0.14 |
| CCUGAGCAAUAUUACGAAGA | -1.76 ± 0.18 | -1.69 ± 0.19 |
| CCUGAGCAAUAUUACGAAGG | -3.87 ± 0.3 | -2.36 ± 0.32 |
| CCUGAGCAAUAUUACGACAG | -1.3 ± 0.14 | -0.663 ± 0.15 |
| CCUGAGCAAUAUUACGAGAU | -1.86 ± 0.16 | -2.09 ± 0.23 |
| CCUGAGCAAUAUUACGAGCA | -3.49 ± 0.27 | -3.47 ± 0.3 |
| CCUGAGCAAUAUUACGAGGA | -3.04 ± 0.45 | -1.57 ± 0.18 |
| CCUGAGCAAUAUUACGCCAA | -2.85 ± 0.44 | – |
| CCUGAGCAAUAUUACGCCGC | -2.83 ± 0.5 | 0.153 ± 0.33 |
| CCUGAGCAAUAUUACGCCUU | -2.73 ± 0.28 | -2.01 ± 0.2 |
| CCUGAGCAAUAUUACGCUCG | -2.14 ± 0.43 | -1.7 ± 0.41 |
| CCUGAGCAAUAUUACGGAAU | -4.68 ± 0.23 | -2.85 ± 0.16 |
| CCUGAGCAAUAUUACGGCUA | -1.85 ± 0.33 | – |
| CCUGAGCAAUAUUACGGCUC | -3.81 ± 0.37 | -2.97 ± 0.41 |
| CCUGAGCAAUAUUACGGUAG | -3.11 ± 0.2 | -2.26 ± 0.2 |
| CCUGAGCAAUAUUACGGUGG | -3.67 ± 0.37 | -1.4 ± 0.2 |
| CCUGAGCAAUAUUACGUGGG | -3.25 ± 0.15 | -2.85 ± 0.2 |
| CCUGAGCAAUAUUACGUUUC | -3.69 ± 0.25 | -2.81 ± 0.28 |
| CCUUAGCAAUAUUACGACCC | -2.95 ± 0.44 | – |
| CCUUAGCAAUAUUACGAGUU | -3.96 ± 0.27 | -2.56 ± 0.21 |
| CCUUAGCAAUAUUACGAUAC | -1.67 ± 0.44 | – |
| CCUUAGCAAUAUUACGCACA | -1.93 ± 0.28 | -1.06 ± 0.21 |
| CCUUAGCAAUAUUACGCACU | -2.46 ± 0.41 | -1.29 ± 0.22 |
| CCUUAGCAAUAUUACGCUAC | -2.32 ± 0.27 | -2.26 ± 0.27 |
| CCUUAGCAAUAUUACGCUUC | -3.71 ± 0.31 | -1.83 ± 0.24 |
| CCUUAGCAAUAUUACGGAAA | -3.07 ± 0.24 | – |

| Sequence | self-splicing fitness (ln) (30 °C) | self-splicing fitness (ln) (37 °C) |
| --- | --- | --- |
| CCUUAGCAAUAUUACGGAUC | -3.45 ± 0.47 | -3.6 ± 0.34 |
| CCUUAGCAAUAUUACGGCGA | -4.24 ± 0.39 | -1.96 ± 0.2 |
| CCUUAGCAAUAUUACGGGAC | -3.96 ± 0.46 | – |
| CCUUAGCAAUAUUACGUACA | -3.88 ± 0.42 | -2.22 ± 0.3 |
| CCUUAGCAAUAUUACGUACU | -2.32 ± 0.23 | -1.99 ± 0.21 |
| CCUUAGCAAUAUUACGUAUU | -4.45 ± 0.29 | -2.82 ± 0.22 |
| CCUUAGCAAUAUUACGUCGU | -3.7 ± 0.25 | -2.13 ± 0.22 |
| CCUUAGCAAUAUUACGUGGU | -4.41 ± 0.36 | -1.91 ± 0.23 |
| CGAAAGCAAUAUUACGAAAG | -0.96 ± 0.073 | -0.475 ± 0.11 |
| CGAAAGCAAUAUUACGAAGU | -3.07 ± 0.15 | -1.84 ± 0.19 |
| CGAAAGCAAUAUUACGAGAA | -2.51 ± 0.49 | – |
| CGAAAGCAAUAUUACGCAAA | -2.59 ± 0.26 | -2.35 ± 0.32 |
| CGAAAGCAAUAUUACGCACA | -0.831 ± 0.11 | -0.358 ± 0.16 |
| CGAAAGCAAUAUUACGCCGC | – | -2.13 ± 0.36 |
| CGAAAGCAAUAUUACGCGUC | – | -0.242 ± 0.19 |
| CGAAAGCAAUAUUACGCGUU | -4 ± 0.18 | -2.85 ± 0.2 |
| CGAAAGCAAUAUUACGCUCG | -3.71 ± 0.3 | -2.26 ± 0.22 |
| CGAAAGCAAUAUUACGCUCU | -2.56 ± 0.14 | -1.56 ± 0.15 |
| CGAAAGCAAUAUUACGCUUC | -2.95 ± 0.38 | -2.01 ± 0.39 |
| CGAAAGCAAUAUUACGGACU | -0.69 ± 0.053 | 0.357 ± 0.079 |
| CGAAAGCAAUAUUACGGAGG | -0.982 ± 0.097 | -1.45 ± 0.14 |
| CGAAAGCAAUAUUACGGCAG | -0.162 ± 0.081 | 0.194 ± 0.1 |
| CGAAAGCAAUAUUACGGCGG | -0.187 ± 0.067 | 0.456 ± 0.093 |
| CGAAAGCAAUAUUACGGGUC | -4 ± 0.3 | -3.76 ± 0.34 |
| CGAAAGCAAUAUUACGUACA | -1.25 ± 0.14 | -1.23 ± 0.15 |
